Source: US20200024348A1 (Alector, published 2020)

T1: histidine-tagged human SORT1 (R&D Systems) (human, UniProt Q99523 78-755)
T1 construct: Bought recombinant protein; also called His-tagged human SORT1; not shown: histidine tag
T1 sequence: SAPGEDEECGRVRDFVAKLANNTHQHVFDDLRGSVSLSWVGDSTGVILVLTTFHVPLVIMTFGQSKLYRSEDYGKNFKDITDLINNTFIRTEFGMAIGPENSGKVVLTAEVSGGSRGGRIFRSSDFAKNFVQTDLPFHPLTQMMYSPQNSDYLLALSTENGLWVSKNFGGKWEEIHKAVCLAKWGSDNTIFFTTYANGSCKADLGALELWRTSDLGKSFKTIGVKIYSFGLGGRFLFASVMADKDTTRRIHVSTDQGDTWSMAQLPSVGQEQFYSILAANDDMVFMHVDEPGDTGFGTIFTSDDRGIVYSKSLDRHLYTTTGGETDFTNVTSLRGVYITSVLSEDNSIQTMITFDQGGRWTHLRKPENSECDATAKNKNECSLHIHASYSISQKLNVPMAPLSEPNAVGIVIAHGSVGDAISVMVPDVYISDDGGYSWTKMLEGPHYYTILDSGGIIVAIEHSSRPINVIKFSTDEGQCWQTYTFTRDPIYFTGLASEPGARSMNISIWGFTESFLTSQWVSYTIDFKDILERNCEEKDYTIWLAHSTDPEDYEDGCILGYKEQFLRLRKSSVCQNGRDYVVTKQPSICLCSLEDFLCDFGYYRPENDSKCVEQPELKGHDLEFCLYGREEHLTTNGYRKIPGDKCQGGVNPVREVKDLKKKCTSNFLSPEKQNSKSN


What follows are binders tested against T1, histidine-tagged human SORT1 (R&D …) (assay: BLI (Octet RED96), antibody captured on anti-human IgG Fc sensor, 20 nM His-tagged human SORT1, 1:1 fit).
Experimental: The G1m3 or G1m(f) allotype with L234A/L235A/P331S (“LALAPS” motif) mutations was used as a background (Jefferis R and Lefranc M-P, Mabs, 2009 July-August; 1(4): 332-338). […] Bio-layer interferometry (BLI) data was collected at a rate of 5 Hz at 25° C. on a Pall ForteBio Octet RED96 instrument. Data analysis was performed using ForteBio Data Analysis Software, version 9.0. Standard kinetic buffer (PBS, 0.1 BSA, 0.02 Tween-20, pH 7.2) was used for the assay and for preparing reagents. For all assays, sensor tips were equilibrated in buffer prior to analysis.
Twenty nM histidine-tagged human SORT1 (R&D Systems, Minneapolis, Minn.) was then bound to the captured anti-SORT1 surface (200 s association time, 1200 s dissociation time). […] Full, local fitting using a 1:1 interaction model was applied to extract association and dissociation rate constants (kₐ and kd, respectively) for each N33 mutant. Affinity constants (KD) were calculated from the ratio […]. Different amino acid substitutions were made at N33 and tested for binding to SORT1 in an off-rate screen (under non-stress conditions) as shown in Table 9.

Binder	Kd [nM]	koff [s⁻¹]	kon [M⁻¹ s⁻¹]
S-60-15 [N33 (wt)] huIgG1 LALAPS (antibody, V domains shown, huIgG1 with L234A/L235A/P331S (LALAPS)) VH: QVQLQESGPGLVKPSETLSLTCAVSGYSISSGYYWGWIRQPPGKGLEWIGTIYHSGSTYYNPSLKSRVTISVDTSKNQFSLKLSSVTAADTAVYYCARQGSIKQGYYGMDVWGQGTTVTVSS VL: not shown	0.27		
S-60-15.11 [N33W] (antibody, human IgG1, kappa, L234A L235A, V domains shown, huIgG1 LALAPS) VH: QVQLQESGPGLVKPSETLSLTCAVSGYSISSGYYWGWIRQPPGKGLEWIGTIYHSGSTYYNPSLKSRVTISVDTSKNQFSLKLSSVTAADTAVYYCARQGSIKQGYYGMDVWGQGTTVTVSS VL: DIVMTQSPLSLPVTPGEPASISCRSSQSLLRSWGYNYLDWYLQKPGQSPQLLIYLGSNRASGVPDRFSGSGSGTDFTLKISRAEAEDVGVYYCMQQQEAPLTFGGGTKVEIKR	0.96	0.000579	601000
S-60-15.7 [N33K] (antibody, human IgG1, kappa, L234A L235A, V domains shown, huIgG1 LALAPS) VH: QVQLQESGPGLVKPSETLSLTCAVSGYSISSGYYWGWIRQPPGKGLEWIGTIYHSGSTYYNPSLKSRVTISVDTSKNQFSLKLSSVTAADTAVYYCARQGSIKQGYYGMDVWGQGTTVTVSS VL: DIVMTQSPLSLPVTPGEPASISCRSSQSLLRSKGYNYLDWYLQKPGQSPQLLIYLGSNRASGVPDRFSGSGSGTDFTLKISRAEAEDVGVYYCMQQQEAPLTFGGGTKVEIKR	0.965	0.000547	563000
S-60-15.10 [N33E] (antibody, human IgG1, kappa, L234A L235A, V domains shown, huIgG1 LALAPS) VH: QVQLQESGPGLVKPSETLSLTCAVSGYSISSGYYWGWIRQPPGKGLEWIGTIYHSGSTYYNPSLKSRVTISVDTSKNQFSLKLSSVTAADTAVYYCARQGSIKQGYYGMDVWGQGTTVTVSS VL: DIVMTQSPLSLPVTPGEPASISCRSSQSLLRSEGYNYLDWYLQKPGQSPQLLIYLGSNRASGVPDRFSGSGSGTDFTLKISRAEAEDVGVYYCMQQQEAPLTFGGGTKVEIKR	2.01	~0.00136	676000
S-60-15.14 [N33V] (antibody, human IgG1, kappa, L234A L235A, V domains shown, huIgG1 LALAPS) VH: QVQLQESGPGLVKPSETLSLTCAVSGYSISSGYYWGWIRQPPGKGLEWIGTIYHSGSTYYNPSLKSRVTISVDTSKNQFSLKLSSVTAADTAVYYCARQGSIKQGYYGMDVWGQGTTVTVSS VL: DIVMTQSPLSLPVTPGEPASISCRSSQSLLRSVGYNYLDWYLQKPGQSPQLLIYLGSNRASGVPDRFSGSGSGTDFTLKISRAEAEDVGVYYCMQQQEAPLTFGGGTKVEIKR	0.69	0.000306	445000
S-60-15.9 [N33Y] (antibody, human IgG1, kappa, L234A L235A, V domains shown, huIgG1 LALAPS) VH: QVQLQESGPGLVKPSETLSLTCAVSGYSISSGYYWGWIRQPPGKGLEWIGTIYHSGSTYYNPSLKSRVTISVDTSKNQFSLKLSSVTAADTAVYYCARQGSIKQGYYGMDVWGQGTTVTVSS VL: DIVMTQSPLSLPVTPGEPASISCRSSQSLLRSYGYNYLDWYLQKPGQSPQLLIYLGSNRASGVPDRFSGSGSGTDFTLKISRAEAEDVGVYYCMQQQEAPLTFGGGTKVEIKR	1.28	0.000675	511000

Continued, values first:

Kd [nM]	koff [s⁻¹]	kon [M⁻¹ s⁻¹]	Binder
0.625	0.000315	493000	S-60-15.15 [N33A] (antibody, human IgG1, kappa, L234A L235A, V domains shown, huIgG1 LALAPS) VH: QVQLQESGPGLVKPSETLSLTCAVSGYSISSGYYWGWIRQPPGKGLEWIGTIYHSGSTYYNPSLKSRVTISVDTSKNQFSLKLSSVTAADTAVYYCARQGSIKQGYYGMDVWGQGTTVTVSS VL: DIVMTQSPLSLPVTPGEPASISCRSSQSLLRSAGYNYLDWYLQKPGQSPQLLIYLGSNRASGVPDRFSGSGSGTDFTLKISRAEAEDVGVYYCMQQQEAPLTFGGGTKVEIKR
0.905	0.000653	609000	S-60-15.8 [N33Q] (antibody, human IgG1, kappa, L234A L235A, V domains shown, huIgG1 LALAPS) VH: QVQLQESGPGLVKPSETLSLTCAVSGYSISSGYYWGWIRQPPGKGLEWIGTIYHSGSTYYNPSLKSRVTISVDTSKNQFSLKLSSVTAADTAVYYCARQGSIKQGYYGMDVWGQGTTVTVSS VL: DIVMTQSPLSLPVTPGEPASISCRSSQSLLRSQGYNYLDWYLQKPGQSPQLLIYLGSNRASGVPDRFSGSGSGTDFTLKISRAEAEDVGVYYCMQQQEAPLTFGGGTKVEIKR
0.823	0.00046	548000	S-60-15.6 [N33H] (antibody, human IgG1, kappa, L234A L235A, V domains shown, huIgG1 LALAPS) VH: QVQLQESGPGLVKPSETLSLTCAVSGYSISSGYYWGWIRQPPGKGLEWIGTIYHSGSTYYNPSLKSRVTISVDTSKNQFSLKLSSVTAADTAVYYCARQGSIKQGYYGMDVWGQGTTVTVSS VL: DIVMTQSPLSLPVTPGEPASISCRSSQSLLRSHGYNYLDWYLQKPGQSPQLLIYLGSNRASGVPDRFSGSGSGTDFTLKISRAEAEDVGVYYCMQQQEAPLTFGGGTKVEIKR
0.46	0.000228	491000	S-60-15.13 [N33I] (antibody, human IgG1, kappa, L234A L235A, V domains shown, huIgG1 LALAPS) VH: QVQLQESGPGLVKPSETLSLTCAVSGYSISSGYYWGWIRQPPGKGLEWIGTIYHSGSTYYNPSLKSRVTISVDTSKNQFSLKLSSVTAADTAVYYCARQGSIKQGYYGMDVWGQGTTVTVSS VL: DIVMTQSPLSLPVTPGEPASISCRSSQSLLRSIGYNYLDWYLQKPGQSPQLLIYLGSNRASGVPDRFSGSGSGTDFTLKISRAEAEDVGVYYCMQQQEAPLTFGGGTKVEIKR
0.825	0.000411	498000	S-60-15.3 [N33G] (antibody, human IgG1, kappa, L234A L235A, V domains shown, huIgG1 LALAPS) VH: QVQLQESGPGLVKPSETLSLTCAVSGYSISSGYYWGWIRQPPGKGLEWIGTIYHSGSTYYNPSLKSRVTISVDTSKNQFSLKLSSVTAADTAVYYCARQGSIKQGYYGMDVWGQGTTVTVSS VL: DIVMTQSPLSLPVTPGEPASISCRSSQSLLRSGGYNYLDWYLQKPGQSPQLLIYLGSNRASGVPDRFSGSGSGTDFTLKISRAEAEDVGVYYCMQQQEAPLTFGGGTKVEIKR
2.91	0.000816	280000	S-60-15.12 [N33F] (antibody, human IgG1, kappa, L234A L235A, V domains shown, huIgG1 LALAPS) VH: QVQLQESGPGLVKPSETLSLTCAVSGYSISSGYYWGWIRQPPGKGLEWIGTIYHSGSTYYNPSLKSRVTISVDTSKNQFSLKLSSVTAADTAVYYCARQGSIKQGYYGMDVWGQGTTVTVSS VL: DIVMTQSPLSLPVTPGEPASISCRSSQSLLRSFGYNYLDWYLQKPGQSPQLLIYLGSNRASGVPDRFSGSGSGTDFTLKISRAEAEDVGVYYCMQQQEAPLTFGGGTKVEIKR
0.88	0.00046	524000	S-60-15.4 [N33R] (antibody, human IgG1, kappa, L234A L235A, V domains shown, huIgG1 LALAPS) VH: QVQLQESGPGLVKPSETLSLTCAVSGYSISSGYYWGWIRQPPGKGLEWIGTIYHSGSTYYNPSLKSRVTISVDTSKNQFSLKLSSVTAADTAVYYCARQGSIKQGYYGMDVWGQGTTVTVSS VL: DIVMTQSPLSLPVTPGEPASISCRSSQSLLRSRGYNYLDWYLQKPGQSPQLLIYLGSNRASGVPDRFSGSGSGTDFTLKISRAEAEDVGVYYCMQQQEAPLTFGGGTKVEIKR
0.44	0.000247	563000	S-60-15.2 [N33S] (antibody, human IgG1, kappa, L234A L235A, V domains shown, huIgG1 LALAPS) VH: QVQLQESGPGLVKPSETLSLTCAVSGYSISSGYYWGWIRQPPGKGLEWIGTIYHSGSTYYNPSLKSRVTISVDTSKNQFSLKLSSVTAADTAVYYCARQGSIKQGYYGMDVWGQGTTVTVSS VL: DIVMTQSPLSLPVTPGEPASISCRSSQSLLRSSGYNYLDWYLQKPGQSPQLLIYLGSNRASGVPDRFSGSGSGTDFTLKISRAEAEDVGVYYCMQQQEAPLTFGGGTKVEIKR
